In the assay the target is SARS-CoV-2 receptor-binding domain (RBD) of the spike protein (SARS-CoV-2) (UniProt P0DTC2).

As usually defined, the Kd is the constant that tells how readily two partners part at equilibrium. Read a low Kd as a tighter complex. Bamlanivimab/ LY-CoV555 (antibody) came in with a Kd of 3.5 nM.

The values are drawn from patent US12098186.
